According to US6733762:
Where “and” joins values, the source holds several entries; their conditions need not be identical. Equal entries are not always repeated.

What was measured:
[1] = biological target: Zot receptor / Zot binding sites on human monocytes/macrophages (CD14+) (human)
[2] = biological target: Zot binding sites on human T lymphocytes (CD3+) (human); experiment: flow cytometry, MESF calibration, several volunteers
[3] = biological target: Zot receptor / Zot binding sites on human monocytes/macrophages (CD14+) (human); experiment: as above
[4] = biological target: Zot binding sites on human T lymphocytes (CD3+) (human); experiment: real-time flow cytometry at 37 C, Zot-FITC 40 ug/ml, cells gated on CD3
[5] = biological target: Zot receptor / Zot binding sites on human monocytes/macrophages (CD14+) (human); experiment: real-time flow cytometry at 37 C, Zot-FITC 40 ug/ml, cells gated on CD14
[6] = biological target: Zot receptor / Zot binding sites on human monocytes/macrophages (CD14+) (human); experiment: flow cytometry, MESF calibration, several volunteers; reference: lymphocytes
[7] = biological target: Zot binding sites on human T lymphocytes (CD3+) (human); experiment: flow cytometry, MFI converted with Quantum 26 MESF kit, saturation conditions
[8] = biological target: Zot receptor / Zot binding sites on human monocytes/macrophages (CD14+) (human); experiment: as above
[9] = biological target: Zot receptor / Zot binding sites on human monocytes/macrophages (CD14+) (human); experiment: 4-color flow cytometry, Zot-FITC 40 ug/ml on PBMC; reference: T or B lymphocytes
[10] = biological target: Zot binding sites on human T lymphocytes (CD3+) (human)
[11] = biological target: Zot receptor / Zot binding sites on human monocytes/macrophages (CD14+) (human); remark: listed apart in the source

6xHis-Zot fusion protein (unlabeled) (from UniProt P38442 1-399)
% suppression of Zot-FITC mean fluorescence intensity [1]: 24% and 43%

Zot-FITC (6xHis-Zot conjugated to fluorescein isothiocyanate, Examples 4-7) (from UniProt P38442 1-399)
Zot binding sites/cell (mean of several volunteers) (binding sites/cell) [2]: 10700
Zot binding sites/cell (mean of several volunteers) (binding sites/cell) [3]: 105000
time to reach binding equilibrium [4]: < 2 min
time to reach binding equilibrium [5]: < 2 min
fold of binding sites/cell against lymphocytes [6]: 10 fold
Zot-binding sites/cell (binding sites/cell) [7]: 9000
Zot-binding sites/cell (binding sites/cell) [8]: 106000
fold of binding against T or B lymphocytes [9]: 5 fold and 8 fold

purified Zot (cleaved from the MBP-Zot fusion protein with Factor Xa) (from UniProt P38442 9-399)
% decrease of Zot-FITC binding [10]: 33%
% decrease of Zot-FITC binding [11]: 33%
